Source: IntAct's records for PubMed 17579517

B1: Serine/threonine-protein kinase PINK1, mitochondrial (Homo sapiens), Q9BXM7-1 (parent)
chain: MAVRQALGRGLQLGRALLLRFTGKPGRAYGLGRPGPAAGCVRGERPGWAAGPGAEPRRVGLGLPNRLRFFRQSVAGLAARLQRQFVVRAWGCAGPCGRAVFLAFGLGLGLIEEKQAESRRAVSACQEIQAIFTQKSKPGPDPLDTRRLQGFRLEEYLIGQSIGKGCSAAVYEATMPTLPQNLEVTKSTGLLPGRGPGTSAPGEGQERAPGAPAFPLAIKMMWNISAGSSSEAILNTMSQELVPASRVALAGEYGAVTYRKSKRGPKQLAPHPNIIRVLRAFTSSVPLLPGALVDYPDVLPSRLHPEGLGHGRTLFLVMKNYPCTLRQYLCVNTPSPRLAAMMLLQLLEGVDHLVQQGIAHRDLKSDNILVELDPDGCPWLVIADFGCCLADESIGLQLPFSSWYVDRGGNGCLMAPEVSTARPGPRAVIDYSKADAWAVGAIAYEIFGLVNPFYGQGKAHLESRSYQEAQLPALPESVPPDVRQLVRALLQREASKRPSARVAANVLHLSLWGEHILALKNLKLDKMVGWLLQQSAATLLANRLTEKCCVETKMKMLFLANLECETLCQAALLLCSWRAAL
partner: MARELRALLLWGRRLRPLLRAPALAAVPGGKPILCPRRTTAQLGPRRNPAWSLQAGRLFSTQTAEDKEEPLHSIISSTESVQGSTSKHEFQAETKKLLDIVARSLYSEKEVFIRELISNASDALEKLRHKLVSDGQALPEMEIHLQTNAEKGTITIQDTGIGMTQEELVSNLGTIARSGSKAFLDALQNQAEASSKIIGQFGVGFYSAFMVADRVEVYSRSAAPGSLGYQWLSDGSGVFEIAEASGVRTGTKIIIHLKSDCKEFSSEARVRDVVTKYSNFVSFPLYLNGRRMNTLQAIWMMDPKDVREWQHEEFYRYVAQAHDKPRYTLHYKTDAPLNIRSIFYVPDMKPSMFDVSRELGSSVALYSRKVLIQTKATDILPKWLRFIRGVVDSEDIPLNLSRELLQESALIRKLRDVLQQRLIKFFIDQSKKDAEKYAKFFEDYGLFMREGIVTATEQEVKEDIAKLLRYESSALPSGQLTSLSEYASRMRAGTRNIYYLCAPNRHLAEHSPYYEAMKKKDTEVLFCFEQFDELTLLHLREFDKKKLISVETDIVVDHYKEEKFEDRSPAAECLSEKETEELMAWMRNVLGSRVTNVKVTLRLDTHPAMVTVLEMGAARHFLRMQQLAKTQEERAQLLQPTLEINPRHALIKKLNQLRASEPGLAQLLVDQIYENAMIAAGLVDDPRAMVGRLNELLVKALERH

Variants of: B1
Conditions: with trap1_human TRAP1, Q12931

Effect of a mutation on the interaction, decreasing interaction:
K219A;D362A;D384A
G309D
L347P
D362A
D384A
